The results in this text go back to the DeepSol protein solubility set.

The series can be described thus: soluble on expression in E. coli; label from the status in PepcDB or PDB records.
With “MLASRRLLPQISSRALSTSPALKSSEISVKEERPYVYNVKLNRPAKLNTFTMDMWREFKKAIDSLADDPKCRSIIISGEGKAFCAGIDIAHGLSDILRIIQDDTIEVGRKGRLVRKFIGEIQDCYTALERCPKPIIASIHSHCLGAGIDLITACDIRVASQDAIFSIREVDVGLAADIGTLNRIQKVVGNDSWTRDVAFTARDFGADEALRFGLISRIYDDRQSLLENSIDMAARIAEKSPIAVQGTKETLNYAREHSTDDSLNFIKTWNMSQLLSTDLLSSAMAVMNKKKATYEDV”, the “soluble on expression in E. coli” value was “not soluble”.

On to “MSSPHSLRQQYQSLIASGSIEADPAQARAVQAFTLLNETLDGYKPPKKQGFFGRLFGGGDAGQAPPQGLYIHGEVGRGKTMLMDLFFDASPIALKRRSHFHEFMAETHDRINGFRQAIKRGDIPDADVMELTAASILDEAWLLCFDEFHVTDIADAMILGRLFTKLFELGTVVVATSNVAPDDLYKGGLNRSLFMPFIGQVKRHMRVIRLDARTDYRLEKFAGMKVWLAPDDAEATATIDRAWHRITGTTKGEPRDISIKGRILHVPQADHHVARFSFADLCQKPLGASDYLRLAHEYHTLMIDHVPVMDYADRNAAKRFIALIDTLYDNSVKLMASAAAEPARLYRATEGFEALEFNRTVSRLTEMGSESYLALPHGRRDSTATGETTGLVETMAGDPLEHHHHHH”, for which the “soluble on expression in E. coli” value is recorded as “not soluble”.

Regarding “ASGTTLNWTGRMLGNGTLVKEGAGTLALSGFNAHGGTVVNAGTVQISNDYGLGNGALTLNNSRLASTADIYAEAAATVNGNGTFDTANGTTLQWMGDIGGAGALVKTGAGTLLLGGDSLY”, the “soluble on expression in E. coli” value is reported as “not soluble”.

Take “MRVGQHTLQFANPPVIVATASVVGPKEGEGPLGDTFDMVIDDSYFGEETWEKAERKMLEEAVKMVIAKAQLKPQDIDFLLAGDLLNQTISANYAARSLGIPFLGLYGACSTMYEGMALAAMLIDGGFAHHVVAACSSHYDTAERQYRFPTEQGIQRPPTAQWTVTGAGAVLMAPVGNGPRITHATIGRVLDVGIKDPNDMGSAMAPAAVDTIVRHFQDTGRGPIDYDLIITGDLGRVGHEIATKLLGEKKYDVSKNYSDCGILIYDHERQDTHAGGSGCACSAVVFAGHLMGKLNEGRYKRILGVGTGALLSTTATQQGESIPGIGHGVVIEGLEHHHHHH”: the “soluble on expression in E. coli” value is on record as “not soluble”.

“MGSDKIHHHHHHMSKRLLLFDFDETYFKHNTNEEDLSHLREMEKLLEKLTNNNEVITAVLTGSTFQSVMDKMDQVNMTFKPLHIFSDLSSKMFTWNNGEYVESETYKKKVLSEPFLFEDIEDILRHISAQYNVEFIPQRAFEGNETHYNFYFHSTGNHNNDSRILEALVRYANDQNYTARFSRSNPLAGDPENAYDIDFTPSNAGKLYATQFLMKKYNIPVKSILGFGDSGNDEAYLSYLEHAYLMSNSRDEALKQKFRLTKYPYYQGITLHVKEFVEGKYDY”: the “soluble on expression in E. coli” value was “not soluble”.

“GPGSMRVDVEAVFEKIRPALEVAEVGAWSKTDITTFMSLVSGFCDIQRQQLRARRGKRRDGHDCEQNVDKEGGCEDGCGVRGEDGDKEDEASLEADSVVVLEIRRSLTKLRHYLQKRIPYGSISEPVVPPAPTSPQEGENSCGGRGAYKALQSSKPVEPPVCAVDAFLYLEEDIDALADQGHISREYCRSCGSVDIGLCQFITHSFSLEQLIFLSCFLLPSFGDTSYCLTSDNVWRPRHKNCHTVAAAFSCEHVVEVGSRLGIVPMSCYFASEQQRLLNTRRVTAIELDKELVALQQEVFQKFARGPTAAHLNLVHSDCFEGEGLEALRSADIIILHNIFEYFTASAEEHLRSWKRLRAAVVRSGQLLVCCPPLQETLAAFSEDCVRKVFINEQDKVDFVHVHQSNSNAGRISRKRCRQPPQEHSFTLDQWWRSWVKEIDVEHIRRSFLTAQRFCEEDHPCDSSYGDADDELVKELKDMRVYMVQ”: the “soluble on expression in E. coli” value was “not soluble”.

As for “MGSDKIHHHHHHMKNALIQSGPDTTGRRPSRKVLIYGLNYAPELTGIGKYSAEMAESLADVGYEVRVICAPPYYPEWRIGAGHSAWRYRTEQRAAVRIQRAPVWVPSRPSGLKRLLHLASFAVSSLPTVFAQLFWRPDIVIAVAPSLMNIPAALMFGKMARARTWLHIQDYEVDAAFELGMLKGKRLRQFALGVESWLMRRFDVVSTISARMIEHGRNKGVDSPRLFALPNWVDVNVIFPLDRPSLYRTALNIPDEAIVVLYSGNMGAKQGIEVLAQAAASLAHRSDIHFVLCGDGPYKVNLVEQCGHLANCTFLSLQPFDKLNDLLNVADIHVLPQRADAADLVMPSKLTGMLASGRSIIAMARAGTELFDVVSPRGVTVPPEDVQALVAAIENLADDVDQRTRLGAAARAYAETELSRRAVIERLDGRFQMLCDRVRGRSVFT”, the “soluble on expression in E. coli” value was “not soluble”.

In the case of “GMTSRSPFESFVWQSEIFNCQSNDIDAFYAQLAEEVNRLGLKKNTLGSVDSFAINLYQSASQRSDLPSLLISSGFHGEEAAGPWGMLHFLRGLQPALFERVNLSLLPLVNPTGFKAGHRFNRFGENPNRGFTLENGKPTPNEHTSLEGKLLLEHAQLLCAASRDGILTCHEDVLMNETYVYSFEPTQTPGRFSLGLRDALGQYFKLAKDGFIDECPVTDGVIFNHFDTSFEAFLVRSGAKLAACSETPGQEDFDRRVQANSAAMGQFIAHCAPIL”, the “soluble on expression in E. coli” value is on record as “soluble”.

Turning to “MGSDKIHHHHHHMKIRLTQLQCSSSSVTVDINDWVIEPQQSWGVFSTEGDVGALLGQLLTQQIDAQTLTYSGDIIGVTPASVALVSLLEQQSLLEAILEQDDSESLGYTDPKTTVFGVVFNQCHDNDLTHQLLQQLDLTHLSLSPFAQLSTGEGRRVMLARAVATQVPFLVLDEPYAGLDVAHRQTLTEYLQQLSQTKQILVVVSREEDMPDWIEHVAMFSHGKLDTMMTKSQWDNHPVIAQLTAQAGQQSDDILALIRRHRHKPLFANPVFQLNNGRVAYSDKVIFSGVNWRIDNGVHWQVKGPNGCGKSTLLGLIFGDHPQCYSNDIDIFGNKRGSGESIWEIKKHIGMVSSALHLQYRVNCSALDVIVSGFYDSIGLYQKPTAQQISVATEWLAILHMGHLSKTAFRQLEYGQQRLLLIARAIVKQPTLLILDEPYQGLDYLGRRLIKNALELIAKEHLSQLLYVSHYQEDSLDSIQHYIEFVKDENQDGYRAVVSQG”, the “soluble on expression in E. coli” value was “not soluble”.

On to “MSLHKEYIQNYLNLTRNTGNLMLFAGDQKIEHLNEDFYGKDISKDDADPEHLFKIAENSKIGGFAVQFGLLSRYGRDHKDINYIVKLNSKTNLVDTNQKDPLSRALLDINDILEFKKNSGINIVGVGYTIYLGSEYESEMLSEASKIIYEAHKGGLVVILWIYPRGKAVKDEKDSELISGATGVAACLGADFVKVNYPKSENPAESFKEAVMAAGRTKVVCAGGSSTDIESFLKQLYEQIHISGASGNATGRNIHQKSLSDAVSMCNAIYAITIDGKTVSEALNIYNERKSEGHHHHHH”, for which the “soluble on expression in E. coli” value is “not soluble”.

For the sequence “MAQGFKITYTDQACLLDIQDPQNKESQSFHYALVPRGVEAENIPADYTVIETPIRSVICMTSLQLSNFIKLEELDAVVGITSTRHLFNKKINDRLKDGSIHKIGIEGNFDNEVIMSVNPDLILISPFKRGGYDALKEVGIPLMPHLGYKEMTPLGQAEWIKFVGLLLGREDKANKQFAAIKKRYNELKELTGLEHHHHHH”, the “soluble on expression in E. coli” value is given as “not soluble”.

Consider “MGSDKIHHHHHHMGVSHGYVIWPLGSVHLISAIHPDILEKLMTKTLLLYSTVDGQTLAICQRMQTVMTQAGEQVELLSLNDCSGDALTQVDRVLIGASIRYGKHRPELLSFTNTHQDLLNSKMNGFFTVNVVARKPEKNTPATNPYMIKFLQLSAWQPKVLGVFAGKIAYPKYGPFDRFMIRFIMWMTKGPTDTKGTFEFTDWNKVDEFAGSFVKQ”, for which the “soluble on expression in E. coli” value is “not soluble”.

Regarding “IPEEGGDELGAMARTLSLFRESAIEKKKLEDEAERQRRTIAAALEVISDGFVLYDSEDRILVANSKYCEIFPSHKPNTLRGRSFREIVEQNLEMGQVDLEGKSPQEWVDERVRLHRDPAGLVDEKRFGDKWVRISKRKIPD”, the “soluble on expression in E. coli” value is listed as “not soluble”.

For the sequence “MNNLISQDKRISSNPVAKIIYGDPVTFLPHLPRKSVVHCSKIWSCRKRITVEYLQHIVEQKNGKERVPILWHFLQKEAELRLVKFLPEILALQRDLVKQFQNVQQVEYSSIRGFLSKHSSDGLRQLLHNRITVFLSTWNKLRRSLETNGEINLPKDYCSTDLDLDTEFEILLPRRRGLGLCATALVSYLIRLHNEIVYAVEKLSKENNSYSVDAAEVTELHVISYEVERDLTPLILSNCQYQVEEGRETVQEFDLEKIQRQIVSRFLQGKPRLSLKGIPTLVYRHDWNYEHLFMDIKNKMAQDSLPSSVISAISGQLQSYSDACEVLSVVEVTLGFLSTAGGDPNMQLNVYTQDILQMGDQTIHVLKALNRCQLKHTIALWQFLSAHKSEQLLRLHKEPFGEISSRYKADLSPENAKLLSTFLNQTGLDAFLLELHEMIILKLKNPQTQTEERFRPQWSLRDTLVSYMQTKESEILPEMASQFPEEILLASCVSVWKTAAVLKWNREMR”, the “soluble on expression in E. coli” value is listed as “not soluble”.

For “MENSIRYISEHPTDFNGLLSLYESLGWNSLKLTVNELERMCKQSWYAIYVFDDKRLVGMGRVISDGVITGIICGVGVLPKYQSSGIGKEIVKRLIQHCEQNKVIPQLMCVEKLQSYYESIGFEAFSIGMTKHIIR”, the “soluble on expression in E. coli” value was “not soluble”.

As for “VEHEQQVTESPSLASVPTADELFDFHIGDRVLIGNVQPGILRFKGETSFAKGFWAGVELDKPEGNNNGTYDGIAYFECKEKHGIFAPPQKISHIPENFDDYVDINEDED”, the “soluble on expression in E. coli” value is “soluble”.

For “MSLKKIKRITAYQVDLPLHEGSYNWSGGKTVNIFDSTIVAIETDDGLIGYGECCPLGPFYLPSYAEGVRAGIKELGPHLIGLDATDHSYINMVMDQCLKGHPYVKSPIDIACWDIKGKAANMPISKLLGGTYDEDFVLYRAISQNEPDAMASNVKKYRDEGYRRFQLKVGGSPNEDIERIRSVASKLEDGDKLIADANTGWLAHEALRVIRAVNDIDVYIEQPCQSYEECLSVRQKTTHPFILDESVKNIGVLVRGYHDKAMDAVNIKISKFGGITKAVLARDLCTELGIAMTIEDSWGGDIVTATIAHLAHSTQPKLLFTATDFNSYVTVHIADGAPQRNNGRMKSSGEGHHHHHH”, the “soluble on expression in E. coli” value was “not soluble”.

Take “MGSDKIHHHHHHMVLRYTALGDSLTTGRGSGLFSPGFVQRFGDMMEADLKTRTAINIFARSGLNTEEILGLLSYPYVQKCIRDADMITITGCGNDLIDSVLAYQTSKDETIFSRVSAHCHENFEKMIAKVAEIKGENPSPYAIRVFNLYNPFPEIDIAGKWITSFNSHLETLASAPHVKIADAYSIFKGKEQEYLSFDGVHPNSKGYQAMAEAVHKLGYKELSVS”: the “soluble on expression in E. coli” value is reported as “not soluble”.

“MNDRADFVVPDITTRKNVGLSHDANDFTLPQPLDRYSAEDHATWATLYQRQCKLLPGRACDEFLEGLERLEVDADRVPDFNKLNEKLMAATGWKIVAVPGLIPDDVFFEHLANRRFPVTWWLREPHQLDYLQEPDVFHDLFGHVPLLINPVFADYLEAYGKGGVKAKALGALPMLARLYWYTVEFGLINTPAGMRIYGAGILSSKSESIYCLDSASPNRVGFDLMRIMNTRYRIDTFQKTYFVIDSFKQLFDATAPDFAPLYLQLADAQPWGAGDIAPDDLVLNAGDHQGWADTEDV”: the “soluble on expression in E. coli” value is recorded as “soluble”.

For “MSAFPVHAAFEKDFLVQLVVVDLNDSMDQVAEKVAYHCVNRRVAPREGVMRVRKHRSTELFPRDMTIAESGLNPTEVIDVVFEE”, the “soluble on expression in E. coli” value is listed as “soluble”.
